Measurements published in the nanobody polyreactivity screen of Harvey et al. (2022).

Assay: yeast display, Sf9 membrane polyspecificity reagent, FACS + sequencing; frameworks hold sequencing errors
Method in brief: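 Galactose-induced (36–48 hours) yeast carrying a synthetic nanobody display library were exposed to 10% biotinylated, detergent-solubilized Sf9 membrane reagent at 4 °C for 1 hour. FACS followed streptavidin microbead enrichment, using low and high (top ~1%) gates for expression (anti-HA) and reagent binding (streptavidin). Colony PCR, MiSeq 2 × 250 sequencing and CDR-length filtering followed. Labels for polyreactivity reflect the gate of origin.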

Row | Sequence | polyreactivity (PSR sort gate)
1 | QVQLVESGGGLVQAGGSLSLRCASSGSTFAYYAMGWYRQAPGKERELVAGNNWTGGSTYYADSVKGRFTISRDNAKNTVYLQMNSLKPEDTAVYYCAVTYPYGYEYDHWGQGTQVTVSS | low polyreactivity
2 | QVQLVESGGGLVQAGGSLSLSCAASGFIFLASAMGWYRQAPGKERELVAAISSGSSTSYADSLKGRFTISRDNAKNTVYLQMNSLKPEDTAVYYCNAVPSFANLTWESYDYWGQGTQVTVSS | low polyreactivity
3 | QVQLVESGGGLVQAGGSLSLSCAASGFTFEKNAMGWYRQAPGKERELVAAITSGGSTYYADSVKGRFTISRDNAKNTVYLQMNSLKPEDTAVYYCNAYYTYRFNYWGQGTQVTVSS | high polyreactivity
4 | QVQLVESGGGLVQAGGSLSLSCAASGFTIYYYAMGWYRQAPGKERELVASITSGGSTYYADSVKGRFTISRDNAKNTVYLQMNSLKPEDTAVYYCAKTRFHSKEGDYWGQGTQVTVSS | low polyreactivity
5 | QVQLVESGGGLVQAGGSLSLSCAASGFTLRFYTMGWYRQAPGKERELVADITWSGASTYYADSVKGRFTISRDNAKNTVYLQMKSLKPEDTAVYYCNAEDRYWSYSVGAPYNYWGQGTQVTVSS | low polyreactivity
6 | QVQLVESGGGLVQAGGSLSLSCAASGIIFGRNALGWYRQAPGKEREMVAGITRRGARTYYADSVKGRFTISRDNAKNTVDLQMNSLKPEDTAVYYCATYSVQTDYGRGDYWGQGTQVTVSS | high polyreactivity
7 | QVQLVESGGGLVQAGGSLSLSCAASGITFEWYAMGWYRQAPGKERELVAAISTSGGSTYYADSVKGRFTISRDNEKNTVYLQMNSLKPEDTEVYYCNTVSYGYSSKLYDYWGHGTQVTVSS | high polyreactivity
8 | QVQLVESGGGLVQAGGSLSLSCAASGITFSGNAMGWYRQAPGKERELVAAITWRGDNTYYADSVKGRFTISRDNAKNTVYLQMNSLKPEDTAVYYCAAKSPLFGLTSYPGPDDSWGQGTQVTVSS | low polyreactivity
9 | QVQLVESGGGLVQAGGSLSLSCAASGLTFSWYTMGWYRPAPGKERELVAAISWSGVSTYYADSVMGRFTISRDNAKNTVYLQMNSLKPEDTAVYYCAAAKTGRGRGTTGYGYWGQGTQVTVSS | high polyreactivity
10 | QVQLVESGGGLVQAGGSLSLSCAASGNTFWGYAMGWYRQAPGKEREFVARINWSGGRTYYAESVKGRFTISRDNAKNTVYLQMNSLKPEDTAVYYCAATSLIYGYRTYDYWGQGTQVTVSS | high polyreactivity
11 | QVQLVESGGGLVQAGGSLSLSCAASGRIFRRYAMGWYRPAPGKERELVASISSGGSTNYADSVKGRFTISRDNAKNTVYLQMNSLKPEDTAVYYCDADRARYYYQAYGAYGYWGQGTQVTVSS | high polyreactivity
12 | QVQLVESGGGLVQAGGSLSLSCAASGRIFSWYDMGWYRQAPGKERELVAAISSGGSTKYADSVKGRFTISRDNAKNTVYLQMNCLKPEDTAVYYCAARLPRRYTREGYWGQGTQVSVSS | high polyreactivity
13 | QVQLVESGGGLVQAGGSLSLSCAASGRILSLNAMGWYRQAPGKERELVAGIRKRGGSTYYADSVKGRFTISRDNAKNTVYLQMNSLKPEDTAVYYCAADGTLFSEYYWFFGYHDYWGQGTQVNVSS | high polyreactivity
14 | QVQLVESGGGLVQAGGSLSLSCAASGRSWFGNAMGWYRQAPGKERELVASISTRGGSTYYADSVKGRFTISRDNAKNTVYLQMNSLKPEDTAVYYCAKRGRDRRIYGYWGQGTQVTVSS | high polyreactivity
15 | QVQLVESGGGLVQAGGSLSLSCAASGRTFANYAMGWYRHAPGKETEFVAVITYSGGNTYYADSVKGRFTISRDNAKNTVYLQMNSLKPEDTAVYYCAKGRPYRNGLYYYWGQGTQVTVSS | high polyreactivity
16 | QVQLVESGGGLVQAGGSLSLSCAASGRTFGYNAKGWYRQAPGKERELVASISYRGGSTYYADSVKGRFTISRDNAKNSVYLQMNSLKPEDTAVYYCNKYYVLREYYWGQGTQVTVSS | high polyreactivity
17 | QVQLVESGGGLVQAGGSLSLSCAASGRTFKYYAMGWYRQAPGKERELVATITWSGTSTNYADSVKGRFTISRDNEKHTVYLQMNSLKPEDTAVYYCAARSKRRNYDYWGQGTQVTVSS | high polyreactivity
18 | QVQLVESGGGLVQAGGSLSLSCAASGRTFLIYAMGWYRQAPGKERELVAAITSGDNTYYADSVKGRFTISRDNAKNTVYLQMNSLKPEDTAVYYCAAGGYVRNYYTYEHWGQGTQVTVSS | low polyreactivity
19 | QVQLVESGGGLVQAGGSLSLSCAASGRTFNSNAMGWYRQAPGKERELVAAISNRGTRTYYADSVKGRFTISRDNAKNTVYLQMNSLKPEDTAVYYCAASERDQRFKHYYWGQGTQVTVSS | high polyreactivity
20 | QVQLVESGGGLVQAGGSLSLSCAASGRTFSQYAMGWYRPAPGTERELVAAIDRTGDSTYYADSVKGRFTISRDNAKNTVYLQMNSLKPEDTAVYYCNRRYTRVRSRKGYDYWGQGTQVTVSS | high polyreactivity
21 | QVQLVESGGGLVQAGGSLSLSCAASGRTFVKNTMGWYRQAPGKERELVAAISSSGGSTYYADSVKGRFTISRDNAKNTVYLQMNSLKPEDTAVYYCAVSYPYKHAGGWYAYNYWGQGTLVTVSS | high polyreactivity
22 | QVQLVESGGGLVQAGGSLSLSCAASGRTFYAYAMGWYRQAPGTERELVACIDKSGGSPYYADSVKGRFTISRTMRRYRLFTDEQPETGRYRGLLLRCWCVVLSDIQFWGEFDYDYWGQGTQVTVSS | low polyreactivity

Row | Sequence | polyreactivity (PSR sort gate)
23 | QVQLVESGGGLVQAGGSLSLSCAASGSIFAQYAMGWYRQAPGKERELVATISSVGSTNYADSVKGRFTISRANAKNTVYLQMNSLKPEDTAVYYCAADYRHDTFSNEYDYWGQGTQVTVSS | low polyreactivity
24 | QVQLVESGGGLVQAGGSLSLSCAASGSIFASYVMGWYRPAPGKEREMVAGIDTSGGSTFYADSVKGRFTISRDNAKNTVYLQMNSLKPEDTAVYYCAADTWYRGRWEFDYWGQGTQVTVSS | low polyreactivity
25 | QVQLVESGGGLVQAGGSLSLSCAASGSIFGTNAMGWYRQAPGKERELVAAISSSGASTYYADSVKGRFTISRDNAKNSVYLQMNSLKPEDTAVYYCARGYTYQSSSFYYWGQGTQVTVSS | low polyreactivity
26 | QVQLVESGGGLVQAGGSLSLSCAASGSIFYNYAMGWYRQAPGKEREFVAAISWSGDTTYYADSVKGRFTISRDNAKNTVYLQMNSLKPEDTAVYYCNADIYASEYYYWGQGTQVTVSS | low polyreactivity
27 | QVQLVESGGGLVQAGGSLSLSCAASGSILVPYTMGWYRQAPGKERELVASISYSGGSTYADSVKGRFTISRDNAKNTVYLQMNSLKPEDTAVYYCAASLPPWYPGDDFYYWGQGTQVTVSS | low polyreactivity
28 | QVQLVESGGGLVQAGGSLSLSCAASGSIVAYNAMGWYRQAPGKERELVAAITDSGGSTFYADSVKGRFTISRDNAKNTVYLQMNSLKPEDTAVYYCATSGDRLVWGQGTQVTVSS | low polyreactivity
29 | QVQLVESGGGLVQAGGSLSLSCAASGSTFGLNASGWYRQAPGKEREFVAAITSGGTYYADSVKGRFTISRDNAKYTVYLHMYSLKPEDTSVYYCAADGTWSIYGGMYYWGQGTQVTVSS | low polyreactivity
30 | QVQLVESGGGLVQAGGSLSLSCAASGSTFKHYAMGWYRKAPGKERELVAAISSRGGSTHYADSVKGRFTISRDNAKNTVYLQMNSLKPEDTAVYYCARDTDPQSSRSSDYDYWGQGTQVTVSS | low polyreactivity
31 | QVQLVESGGGLVQAGGSLSLSCAASGSTFKRYAMGWYRQAPGKERDLVASISSGGSTNYADSVKGRFTISRDNAKNTVNLQMNSLKPEETAVYYCAVSYRSFRYYWERYYSWGQGTQVTVSS | high polyreactivity
32 | QVQLVESGGGLVQAGGSLSLSCAASGSTFWYYAMGLYRQAPGKERELVAAITRGGNTYYADSVKGRFTISRDNAKNTVYLQMNSLKPEDTAVYYCAAGFYLLGKYDYWGQGTQVTVSS | high polyreactivity
33 | QVQLVESGGGLVQAGGSLSLSCAASGSTFYPYAMGWYRQAPGTERELVAAISSGGSTSYADSVKGRFTISRDNAKNTVYLQMNSLKPEDTAVYYCAAEGPEIKYYYWGQGTQVTVSL | low polyreactivity
34 | QVQLVESGGGLVQAGGSLSLSCAASGSTIVYYAMGWYRPAPRKERELVAAINYSSGSTYYADSVKGRFTISRDNSKKTVYLQMNSLKPEDRAVYYCATDLLYYQYYSEYDYWGQGTQVTVSS | high polyreactivity
35 | QVQLVESGGGLVQAGGSLSLSCAATGRTFYHYVMGWYRQAPGKERELVAAISVSGGRTYYADSVKGRFTISRDNAKNTVYLQMNSLKPEDTAVYYCNARYGHRVRKEAGLSYYWGQGTQVTVSS | high polyreactivity
36 | QVQLVESGGGLVQAGGSLSLSCAATGSTLKFNAMGWYRQAPGKERELVAAINFSGGSTYYADSVKGRFTISRDNAKNTVYLQMNSLKPEDTAVYYCAAEASYYSRSVRWRYDYYYWGQGTQVTVSS | high polyreactivity
37 | QVQLVESGGGLVQAGGSLSLSCDASGSTFYTYAMGWSRQEPGKERELVAAITSSGGSTYYADSVKGRFTISRDNAKNTVYLLMNSLKPEDTAVYYCAARVLGGFGFWGQGTQVTVSS | high polyreactivity
38 | QVQLVESGGGLVQAGGSLSLSWAASGFIFRLYAMGWYRQAPGKERELVSGITQRGGRTYYADSLKGRFTISRDNANNTVYLQMNSLKPEDTAVYYCAADRCEYVYWGQGTQVTVSS | high polyreactivity
39 | QVQLVESGGGLVQAGGSLSLTCAAYGRTITRYVMGWYRQAPGKERELVAYISRGGSTNYADSVKGRFTISRDNAKNTVYLQMNSLKPEDSAVYYCAARFSWGGYYSTTYPLTHDYWGQGTQVNVSS | high polyreactivity
40 | QVQLVESGGGLVQAGGSLSLTCDASGFILYYYAMGRYRQAPGKERELVAAIDWDGDRTYYADSVKGRFTISRDIAKNTVYLQMNSLKPEDTAVYYCAAEWPVNFDYWGQGTQVTVSS | low polyreactivity
41 | QVQLVESGGGLVQAGGSPLLSCAASGSIFPSYDMGWYRQAPGKERELVAPLSWSGSTTYSADSVKGRFTISRDNAKNTVSLQMNSLKPEDTAVYYCAVDSNPPDWWAVIYGYWGQGTQVTVSS | low polyreactivity
42 | QVQLVESGGGLVQAGGSPRLSCAASGFTFYLYAMGWYRQAPGKERELVAAITRVGSTYYADSVKGRFTISRDNAKNTVYLQMNSLKPEDSAVYYCATDLSQVGFDYWGQGTQVSVSS | high polyreactivity
43 | QVQLVESGGGLVQAGGSPRLSCAASGSIFSRNTMGWYRQAPGKERELVATITSGSNTNYADSVKGRFTISRDNAKNTVYLQMNSLKPEDTAVYYWGQGTQVTVSS | low polyreactivity
